Laboratory results published in the supplement of paper PMC12042874.
± gives the uncertainty stated by the source.

Test: amyloid nucleation score (Sup35N fusion, yeast selection) (log enrichment); library NNK3; higher = more nucleation; inactive = no reads after selection
Outline: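 The nucleation score is the log enrichment of output over input reads, calculated with DiMSum and centred on the mode score of non-aggregating sequences. Sequences with under 100 input reads were excluded. Reads came from Illumina sequencing of plasmid inserts from psi-negative yeast expressing Sup35N fused to peptides of 20 random codons, induced 24 hours with 100 μM copper sulfate and grown 7 days at 30°C without adenine and uracil.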

Amyloid nucleation score, 0.621 ± 0.26:
GSVGFIIKGWWSTE

Amyloid nucleation score, -0.497 ± 0.7:
GYLYDFLPCP

Amyloid nucleation score, inactive:
GSSVVS
GSTCSDLLALYPWYVRIKEI
GSWTVLQNRHQAERVVSVYR
GSYFRATACPSLFCSFRVEW
GSYMYKKGLQF
GSYRLLY
GTLISEVCIFQ
GTLWNSIFACVFQCSERSIM
GTRLRVGILIPRWDSGTFGF
GTYFSCVYGTKKL
GVFCSVINLIDATVVN
GVFERR
GVFRPMWVLARVDSQNLASL
GVGATATTFWGVRWVRRSTN
GVGFQGYVTRGKNRLRDRAQ
GVGPVGRF
GVISVFWMLWYLYPSLL
GVMVPTALLISNPSRRFHWL
GVRNGPKLILFYLRSWHEAY
GVSSCFWSSFEQKFMKLSSV
GVSYSLCLLIGLNRIRMGMV
GVTCKHRPAKYVQDRMNF
GVWKEHVTRAAVVSWKEGVN
GWHYMYSGYANYIGFSLPLY
GWMYTCRDAHYLDGWRLVHD
GWNSRM
GWRFMLFRAQLFIWMIICFC
GWSYRDLTMVGVNELFV
GWYLYIVTG
GYDGRGSHAL
GYECLIVFFMRLLSIPVVSD
GYKATQLLSGGPYNLCVGGT
GYLWVLRLPGVSEFIEMDLQ
GYNFNEENINMLHQREFSLS
GYNICWTPWYAVLDGVTKML
GYNIMLYMLKYS
GYNVVKLCFIIILFVVEESS
GYWGTLSERPYTELIAGTSI
HCAMCWGILEFEISMFAMEW
HCFFDFAYLTRCSSLRSKRC
HCFVANGFLD
HCGWMAFFISLAPQFVYVLI
HCKRYNVERKNFCDLHNQRY
HCVRVASWGT
HDLAGQFISV
HEGCSMSGRIPLLSRYMGYG
HFITCELGFGDKGSIFFIAG
HFLHYRPTGNHRLFWIRKDY
HFQIIC
HFSYKSKCVGGRFLNDIDVY
HFVKVE

Amyloid nucleation score, 0.356 ± 0.34:
GWMNACT

Amyloid nucleation score, 0.626 ± 0.34:
HDNRDDRIVFFARLDHSRRS

Amyloid nucleation score, 0.189 ± 0.43:
GVLRLVISEHDLDETFVFMT

Amyloid nucleation score, 1.23 ± 0.1:
HFIASRGSGNLKVAFTDSQT

Amyloid nucleation score, 0.339 ± 0.34:
HDRDHDMINSFIAFRQYWPW

Amyloid nucleation score, -0.018 ± 0.93:
GSWMCVMLRVFCSCSWLYCS

Amyloid nucleation score, 0.758 ± 0.1:
HFFMLGLYTSACHLESNYDC

Amyloid nucleation score, 0.697 ± 0.18:
GVSLATSYKMLLGVIVLGME

Amyloid nucleation score, 1.64 ± 0.081:
GTPYCICALSMHSTWDCN

Amyloid nucleation score, 0.846 ± 0.14:
GSYYWGGIGFTSEI

Amyloid nucleation score, 1.97 ± 0.091:
GSYLQGMRCVADWDNGEQLR

Amyloid nucleation score, 0.081 ± 0.81:
GWTLQWIVWI
